Results as given in patent publication US10584341, “Antagonistic PDL1 aptamers and their applications in cancer therapy” (Academia Sinica).
Read-outs that look alike come from different tables or passages of the source.

Assays:
PDL1 (CD274, B7-H1) [1] = biological target: T1, PDL1 (CD274, B7-H1) (Homo sapiens, UniProt Q9NZQ7 Q9NZQ7:19-238); test: filter; passed cut-off of 5 for PDL1/BSA signal, qPCR
Protocol: Evaluation of the Relative Binding Ability of Candidate PDL1 Aptamers Using Nitrocellulose Filter Binding Assay The sequences of candidate PDL1 targeting aptamers were ranked by output reads from next-generation sequencing and sequences with output reads over 100 were analyzed. Among them, top 50 candidate aptamer sequences accounted for over 85% output reads. To evaluate their binding abilities toward PDL1, these top 50 candidate aptamers were synthesized and analyzed by nitrocellulose filter binding assay. The binding abilities toward BSA were used as negative control. In brief, candidate aptamer was incubated with PDL1 or BSA, respectively. Aptamer-protein complexes were collected by nitrocellulose filter and eluted by heating. The number of eluted aptamer was quantified by quantitative PCR and normalized by dividing the signal from PDL1 group to signal from BSA group. In order to find out the PDL1 aptamer with higher specificity, the cut-off value was set at 5.

PDL1 (CD274, B7-H1) [2] = biological target: T1, PDL1 (CD274, B7-H1); test: competition; ED50 for blocking PD-1:PDL1, ELISA
Protocol: Identification of Antagonistic PDL1 Aptamers Using an ELISA-Based Competition Assay To investigate the efficacy of candidate PDL1 aptamers as antagonistic agents, ELISA-based competition assay was performed. Human PDL1 recombinant protein (2 µg/ml) was coated onto wells of 96-well ELISA plates and blocked by BSA (10 mg/ml). Human PD-1 protein (0.6 µg/ml) and aptamer (500 nmole/l) were added into wells simultaneously. After washing away unbound human PD-1 protein, PD-1 protein which remained in wells was detected by HRP-labeled anti-human IgG antibody. TMB was used as HRP substrate for color development and absorbance at 652 nm was detected by ELISA plate reader. Remained human PD-1 protein amount was quantified using standard curve which built by serial diluted human PD-1 protein. Wells without PDL1 coating were used as negative control.
To further investigate 50% effective dose of AP14 and AP32 as PDL1 blocking agents, serial diluted AP14 and AP32 ranged from 12.5 nmole/l to 500 nmole/l were used in previously mentioned ELISA-based competition assay.

[3] = biological target: PDL1 (CD274) on CT26 cells (Mus musculus, UniProt Q9EP73 Q9EP73:19-290); test: flow; apparent Kd on CT26 cells; details: tags: endogenous, CT26 colorectal cancer cells; label: fluorescent dye (not specified)
[4] = biological target: PDL1 (CD274) on LL/2 cells (Mus musculus, UniProt Q9EP73 Q9EP73:19-290); test: flow; apparent Kd on LL/2 cells; details: tags: endogenous, LL/2 lung carcinoma cells; label: fluorescent dye (not specified)
[5] = Mfold-predicted long terminal stem and two short stem loops

T1 sequence (Q9NZQ7 19-238, one chain of several): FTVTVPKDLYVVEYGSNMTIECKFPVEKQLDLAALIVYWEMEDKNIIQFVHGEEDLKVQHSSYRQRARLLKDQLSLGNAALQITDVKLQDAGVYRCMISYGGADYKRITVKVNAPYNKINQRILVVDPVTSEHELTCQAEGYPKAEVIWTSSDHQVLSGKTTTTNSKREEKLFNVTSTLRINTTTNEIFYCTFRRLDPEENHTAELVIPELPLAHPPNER
PDL1 (CD274) on LL/2 cells, sequence (Q9EP73 19-290, one chain of several): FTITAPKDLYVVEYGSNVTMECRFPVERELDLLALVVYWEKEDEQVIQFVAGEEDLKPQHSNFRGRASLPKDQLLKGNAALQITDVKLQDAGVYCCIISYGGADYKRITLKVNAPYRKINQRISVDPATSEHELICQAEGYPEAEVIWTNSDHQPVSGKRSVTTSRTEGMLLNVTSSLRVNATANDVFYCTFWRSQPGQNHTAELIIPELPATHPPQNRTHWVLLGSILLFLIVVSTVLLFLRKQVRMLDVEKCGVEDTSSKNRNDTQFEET
PDL1 (CD274) on CT26 cells, sequence (Q9EP73 19-290, one chain of several): as above

B1: AP22 (ssDNA)
DNA: TCCCTACGGCGCTAACAAACTAGGGTCCATTTGTGTACCTGCGAGCCACCGTGCTACAAC
For B1, the binding signal (PDL1 (CD274, B7-H1) [1]) was greater than 5 fold over BSA.

B2: AP48 (ssDNA)
DNA: TCCCTACGGCGCTAACCATGTTCCTTTCGTTCTGCCTTTTCCTTCCGCCACCGTGCTACAAC
With B2 the binding signal (PDL1 (CD274, B7-H1) [1]) was greater than 5 fold over BSA.

B3: AP33 (ssDNA)
DNA: TCCCTACGGCGCTAACCATCTGGTACCTTACGACGCTTCATCTCCCGCCACCGTGCTACAAC
B3 showed a binding signal (PDL1 (CD274, B7-H1) [1]) greater than 5 fold over BSA.

B4: AP36 (ssDNA)
DNA: TCCCTACGGCGCTAACCATGTTTTCGAAAGACAATCCGCTGCCCTGGCCACCGTGCTACAAC
Work on B4 yielded a binding signal (PDL1 (CD274, B7-H1) [1]) greater than 5 fold over BSA.

B5: AP14 (ssDNA)
DNA: TCCCTACGGCGCTAACCACTCAATAATTCCACTGCTACATACGTTTGCCACCGTGCTACAAC
For B5, the EC50 (PDL1 (CD274, B7-H1) [2]) was 41 nM and the binding signal (PDL1 (CD274, B7-H1) [1]) was greater than 5 fold over BSA.

B6: AP32 (62-nt) (ssDNA)
DNA: TCCCTACGGCGCTAACACATCAACTTGATAGACAACTGCGTCCACTGCCACCGTGCTACAAC
In the case of B6, the EC50 (PDL1 (CD274, B7-H1) [2]; [5]) is reported as 12 nM and the binding signal (PDL1 (CD274, B7-H1) [1]; [5]) is reported as greater than 5 fold over BSA.

ACGGGCCACATCAACTCATTGATAGACAATGCGTCCACTGCCCGT (ssDNA) [aptPDL1 fluorescently labeled] showed a Kd [3] of roughly 250 nM and a Kd [4] of roughly 155 nM.
